To fix the notation:
B1: 14D12 mouse Fab (periplasmic extract) (Fab, V domains shown)
VH: QIQLVQSGPELKKPGETVKISCKASGYTFTNYGMNWVKQTPGKGLKWMGLINTYTGEPTYADDFKGRFAFSLETSASTAYLQINNLKNEDMATYFCARERIYGYLHYFDYWGQGTTLTVSS
VL: DVVMTQTPASLAVSLGQRATISCKASQSVDYDGDSYMNWYQQKPGQPPKLLIYAASNLESGIPARFSGSGSGTDFTLNIHPVEEEDAATYYCQQSNEDPRTFGGGTKLEIK
B2: 13H11 mouse Fab (periplasmic extract) (Fab, V domains shown)
VH: QIQLVQSGPELKKPGETVKISCKASGYTFENFGMNWVKQAPGKGLKWMGWINTYTGEATYADDFKGRFAFSLETSASTAYLQINNLKNEDTATYFCARDGGFRHFDVWGAGTTVTVSS
VL: ETTVTQSPASLSVATGEKVTIRCITSTDIDDDMNWYQQKPGEPPKLLISEGNTLRPGVPSRFSSSGYGTDFVFTIENMLSEDVADYYCLQSDNLPLTFGAGTKLELK
B3: 16E10 mouse Fab (periplasmic extract) (Fab, V domains shown)
VH: QVQLQQSGAELVRPGTSVKISCKASGYTFTNYWLGWVKQRPGHGLEWIGDIYPGGGYTNYNEKFKGKATLTADTSSSTAYMQLSSLTSEDSAVYFCAKFYYYGSSYYFDSWGQGTTLTVSS
VL: DIVLTQSPSSLSVSAGEKVTLSCKSSQSLLNSGNQENYLAWYQQKPGQPPKLLIYGASTRESGVPDRFTGSGSGTDFTLTISSVQAEDLAVYYCQNDHSYPLTFGAGTKLELK
B4: 12A08 mouse Fab (periplasmic extract) (Fab, V domains shown)
VH: EVMLVESGGGLVKPGGSLKLSCAASGFTFDDFYMYWVRQTPEKRLEWVASISDGGTYTYYPDSVKGRFTISRDNAKNTLYLQLSSLKSEDTAMYYCARGVDKYYYAMDYWGQGTSVTVSS
VL: QILLTQSPAIMSASPGEKVTITCSASSSVSYMHWFQQKPGTSPKLWIYSTSNLASGVPARFSGSGSGTSYSLTISRMEAEDAATYYCQQRSSYPLTFGAGTKLELK
B5: 15C03 mouse Fab (periplasmic extract) (Fab, V domains shown)
VH: EVKLLESGPGLVKPSQSLSLTCTVTGYSITSDYAWNWIRQFPGNKLEWMGYISYSGSTRYNPSLKSRISITRDTSNNQFFLQLNSVTTEDTATYYCARSGYAAMDYWGQGTSVTVSS
VL: ENVLTQSPAIMSASPGEKVTMTCRASSSVSSSYLHWYQQKSGASPKLWIYSTSNLASGVPARFSGSGSGTSYSLTISSVEAEDAATYYCQQYSGYPLTFGSGTKLEIK
B6: 12A12 mouse Fab (periplasmic extract) (Fab, V domains shown)
VH: QVQMKQSGAELAKPGASVKMSCKASGYTFTNYWMHWVKQRPGQGLEWIGYINPSTGYTDYNQNFKDRATLTADKSSSTAYMQLSSLTSEDSAVYYCIRGSDYYGRDYWGQGTTLTVSS
VL: DIQMTQTTSSLSASLGDRVTISCRASQDISNYLNWYQQKPDGTLKLLIYYTSRLHSGVPSRFSGSGSGTDYSLTISNLEQEDIATYFCRQGNTLPWTFGGGTKLEIK
B7: 14C05 mouse Fab (periplasmic extract) (Fab, V domains shown)
VH: EVMLVESGPELKKPGETVKISCKASGYTFTNYGMNWVKQAPGKGLKWMGSINTYTGEATYADDFKGRFAFSLETSANTAYLQIDNLKNEDTATYFCARGDYYGRGTWFAYWGQGTLVTVSA
VL: ETTVTQSHKFMSTSVGDRVSITCKASQDVSTAVAWYQQKPGQSPKLLIYSASYRYPGVPDRFTGSGSGTDFTFTISSVQAEDLAVYYCQQDYSSPWTFGGGTKLEIK
B8: 16E03 mouse Fab (periplasmic extract) (Fab, V domains shown)
VH: QVQLQQSGAELARPGASVKMSCKASGYTFTSYTMHWIKQRPGQGLEWIGYINPSSGHTYYNQKFKDKATLTPDKSSSTAYMQLTSLTSEDSAVYYCARRIPTAYAMDYWGQGTSVTVSS
VL: EIQMTQSHKFMSTSVGDRVSITCKASQDVGTAVAWYQQKPGQSPKLLIYWASTRHTGVPDRFTGSGSGTDFTLTISNVQSEDLADYFCQQYSSYPLTFGAGTKLELK

The experiment deals with Mouse VSIG4-His (mouse). The experiment can be described thus: ELISA, Fab P.E. 1:5 on coated antigen.
Sequence of Mouse VSIG4-His (mouse) (chain, as listed by the source limits assumed): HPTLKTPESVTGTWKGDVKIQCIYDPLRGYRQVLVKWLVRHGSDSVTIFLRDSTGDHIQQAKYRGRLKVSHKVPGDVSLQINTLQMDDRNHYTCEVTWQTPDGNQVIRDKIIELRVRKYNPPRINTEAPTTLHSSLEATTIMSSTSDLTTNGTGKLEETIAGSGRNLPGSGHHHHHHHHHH
With B1, the ELISA OD450 turned out to be 0.054 OD450. B2 yielded an ELISA OD450 of 0.057 OD450. On to B3, for which the ELISA OD450 stood at 0.058 OD450. With B4 the figure was 0.057 OD450; with B5, 0.065 OD450. In turn, B6 had an ELISA OD450 of 0.063 OD450. B7 returned an ELISA OD450 of 0.059 OD450.

The molecule B8 had an ELISA OD450 of 0.057 OD450.
